Patent US20250009876A1 (H LUNDBECK A S, published 2025)
Read-outs that look alike come from different tables or passages of the source.

T1: PAC1-R on PAC1-R-expressing PC-12 cells (UniProt P32215 20-523)
T1 construct: whole, on cells; also called PAC1 receptor
T1 sequence (looked up): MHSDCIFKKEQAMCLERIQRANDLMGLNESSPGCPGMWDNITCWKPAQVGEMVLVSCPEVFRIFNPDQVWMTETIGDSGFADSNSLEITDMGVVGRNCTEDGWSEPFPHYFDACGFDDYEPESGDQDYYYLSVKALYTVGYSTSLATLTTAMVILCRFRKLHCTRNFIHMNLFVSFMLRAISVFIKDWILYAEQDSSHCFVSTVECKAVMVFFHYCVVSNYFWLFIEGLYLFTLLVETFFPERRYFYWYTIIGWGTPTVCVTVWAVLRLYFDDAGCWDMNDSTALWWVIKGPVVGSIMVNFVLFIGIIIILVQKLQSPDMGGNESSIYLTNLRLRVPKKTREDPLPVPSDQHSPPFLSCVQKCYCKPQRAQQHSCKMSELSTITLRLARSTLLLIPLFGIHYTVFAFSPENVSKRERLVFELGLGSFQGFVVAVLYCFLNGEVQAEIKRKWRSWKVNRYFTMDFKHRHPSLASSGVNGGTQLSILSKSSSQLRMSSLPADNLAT

T2: PACAP27 (Pituitary Adenylate Cyclase-Activating Polypeptide, 27 amino acids) (human, the C-terminal leucine is amidated)
T2 peptide: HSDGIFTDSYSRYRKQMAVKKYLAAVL

T3: PACAP38 (Pituitary Adenylate Cyclase-Activating Polypeptide, 38 amino acids) (human, not fully specified; the C-terminal lysine is amidated)
T3 peptide: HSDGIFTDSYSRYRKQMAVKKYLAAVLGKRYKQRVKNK

T4: VIP (Vasoactive Intestinal Peptide) (human)
T4 construct: also called human VIP
T4 peptide: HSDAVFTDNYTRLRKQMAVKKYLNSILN


What was measured:
[1] = target: T1, PAC1-R on PAC1-R-expressing PC-12 cells; assay: cell surface binding assay (DELFIA TRF): antibody pre-incubated with PACAP38, added to PAC1-R-expressing PC-12 cells, detected with Eu anti-human IgG
Protocol: Cells were initially seeded at 1×10⁵ cells/well in a solution of complete RPMI (“cRPMI”: RPMI medium supplemented with 10% sterile heat-inactivated FBS and 1% sterile antibiotic/antimycotic)+10% FBS, and the plates were allowed to incubate overnight at 37° C. On the day of the binding assay, antibodies at an initial concentration of 15 μg/ml were diluted at a 1:3 ratio in DELFIA® binding buffer (50 mM Tris, 150 mM NaCl, 0.1% azide, 2% horse serum) (Perkin-Elmer, Waltham, MA) to a total volume of 60 μL in a separate 96 well round bottom plate. PACAP38 was prepared for the binding assay by diluting it in DELFIA® binding buffer to a concentration of 200 nM, and then 60 μl of the diluted PACAP38 was added to each of the antibody-containing wells to form antibody: antigen complexes. Following addition of PACAP38, the antibody: antigen complexes were incubated at room temperature on a shaker for 1 hour. Separately, the PC-12 cells were prepared for addition of antibody: antigen complexes by washing the cells two times with DELFIA® wash buffer (50 mM Tris, 150 mM NaCl, 0.1% Azide) (Perkin-Elmer, Waltham, MA). After washing the cells two times and following the 1 hour room temperature incubation of the antibody: antigen complexes, 50 μl of the antibody: antigen complex was added to each well containing cells. The mixtures of cells and antibody: antigen complexes were then incubated for 30 minutes at room temperature. Following this 30 minute incubation, each mixture was washed two times with DELFIA® wash buffer (Perkin-Elmer, Waltham, MA).
DELFIA® Europium labeled anti-human IgG detection reagent (Cat #1244-330, Perkin-Elmer, Waltham, MA) was diluted to a concentration of 300 ng/ml in DELFIA® Binding Buffer. Following dilution, 50 μl of the anti-human IgG detection reagent was added to each well containing cells, and a 30 minute incubation at room temperature followed this addition of IgG detection reagent. After completion of the 30 minute room temperature incubation, the cells were then washed two times with DELFIA® wash buffer. Next, 50 μl of DELFIA® Enhancement Solution (Cat #1244-105, Perkin-Elmer, Waltham, MA) was added to each well containing cells for a final 15 minute room temperature incubation with shaking. The plates were then read (TRF, excitation 330 nm, emission 620 nm) on a SPECTRAMAX® (Molecular Devices, Sunnyvale, CA) plate reader.

[2] = target: T2, PACAP27 (Pituitary Adenylate …); assay: cell-based or functional assay
[3] = target: T3, PACAP38 (Pituitary Adenylate …); assay: cell-based or functional assay
[4] = target: T4, VIP (Vasoactive Intestinal Peptide); assay: SPR (ProteOn XPR36), antibody amine-coupled, peptide analyte, 1:1 Langmuir fit
[5] = target: T2, PACAP27 (Pituitary Adenylate …); assay: as above
Protocol: (§1) Binding affinities of monoclonal antibodies for human PACAP were estimated using SPR on the PROTEON™ XPR36 (Bio-Rad, Hercules, CA). Antibody was immobilized to the surface of general amine coupling (“GLC” or “GLM”) Chips (Bio-Rad, Hercules, CA). […] Antigen (ranging from 1.23 nM to 100 nM) was typically run sequentially with association times of 2-4 minutes and dissociation times of 3-120 minutes grouped with the PROTEON™ Manager Software (v3.1.0.6 (Bio-Rad, Hercules, CA)) and fitted using a 1:1 Langmuir binding model. Surfaces were regenerated between analyte queries using 0.85% Phosphoric Acid.

[6] = target: T3, PACAP38 (Pituitary Adenylate …); assay: as above
Protocol: as §1

[7] = target: T3, PACAP38 (Pituitary Adenylate …); assay: cell-based or functional assay
[8] = target: T3, PACAP38 (Pituitary Adenylate …); assay: cell-based or functional assay
[9] = target: T2, PACAP27 (Pituitary Adenylate …); assay: SPR (ProteOn XPR36), antibody amine-coupled, peptide analyte, 1:1 Langmuir fit
Protocol: (§2) Binding affinities of monoclonal antibodies for human PACAP were estimated using SPR on the PROTEON™ XPR36 (Bio-Rad, Hercules, CA). Antibody was immobilized to the surface of general amine coupling (“GLC″ or “GLM”) Chips (Bio-Rad, Hercules, CA). […] Antigen (ranging from 1.23 nM to 100 nM) was typically run sequentially with association times of 2-4 minutes and dissociation times of 3-120 minutes grouped with the PROTEON™ Manager Software (v3.1.0.6 (Bio-Rad, Hercules, CA)) and fitted using a 1:1 Langmuir binding model. Surfaces were regenerated between analyte queries using 0.85% Phosphoric Acid, 0.5% SDS, and 0.1N NaOH.

[10] = target: T3, PACAP38 (Pituitary Adenylate …); assay: as above
Protocol: as §2

[11] = target: T4, VIP (Vasoactive Intestinal Peptide); assay: as above

Binder | binding result [1] | Inhibition of 1 nM PACAP27-induced PAC1-R mediated cAMP increase IC50 (pM) [2] [pM] | Inhibition of 0.1 nM PACAP38-induced PAC1-R mediated cAMP increase IC50 (pM) [3] [pM] | Kd [4] [nM] | koff [4] [s⁻¹] | kon [4] [M⁻¹ s⁻¹] | Kd [5] [nM] | koff [5] [s⁻¹] | kon [5] [M⁻¹ s⁻¹] | Kd [6] [nM] | koff [6] [s⁻¹] | kon [6] [M⁻¹ s⁻¹] | Inhibition of 5 nM PACAP38-induced human VPAC1-R mediated cAMP increase IC50 (pM) [7] [pM] | Inhibition of 1 nM PACAP38-induced human VPAC2-R mediated cAMP increase IC50 (pM) [8] [pM] | Kd [9] [nM] | koff [9] [s⁻¹] | kon [9] [M⁻¹ s⁻¹] | Kd [10] [nM] | koff [10] [s⁻¹] | kon [10] [M⁻¹ s⁻¹] | also measured
Ab23 (antibody, human IgG1, kappa, N297A, V domains shown, Full-length anti-PACAP antibody; rabbit/human chimeric) VH: QSVEESGGRLVTPGTPLTLTCTVSGFSLNNYAMSWVRQAPGKGLEWIGIMGVNDITYYASWAKGRFTISKTSTTVDLKMTSLTTEDTATYFCTREIRDDGDSSDKLWGPGTLVTVSS VL: AIKMTQTPSSVSAAVGGTVTINCQASEDIYTNLAWYQQKPGQPPNLLIYDASDLASGVPSRFSGSGDGTQFTLTISAVQCEDAATYYCQGVAWSSNTGYGSAFGGGTEVVVKR | no binding (tested: about 70 nM) | – | – | – | – | – | – | – | – | – | – | – | – | – | – | – | – | – | – | – | –
Ab10.H4 (antibody, human IgG1, kappa, N297A, Full-length humanized variant of Ab10) heavy: not shown light: DIVLTQSPSTLSASVGDRVTITCQSSESVYGNYLAWFQQKPGKAPKFLIYEASKLESGVPSRFSGSGSGTEFTLTISSLQPDDFATYYCAGGDISEGVAFGGGTKVEIKRTVAAPSVFIFPPSDEQLKSGTASVVCLLNNFYPREAKVQWKVDNALQSGNSQESVTEQDSKDSTYSLSSTLTLSKADYEKHKVYACEVTHQGLSSPVTKSFNRGEC | no binding (tested: about 70 nM) | 329 | 22.8 | 98 | 0.015 | 150000 | 0.093 | 1.7e-05 | 190000 | ≤ 0.019 | ≤ 1e-05 | 530000 | – | – | – | – | – | – | – | – | –
Ab10.H2 (antibody, human IgG1, kappa, N297A, Full-length humanized variant of Ab10) heavy: not shown light: AVLTQSPSTLSASVGDRVTITCQSSESVYGNYLAWFQQKPGKAPKFLIYEASKLESGVPSRFSGSGSGTEFTLTISSLQPDDFATYYCAGGDISEGVAFGGGTKVEIKRTVAAPSVFIFPPSDEQLKSGTASVVCLLNNFYPREAKVQWKVDNALQSGNSQESVTEQDSKDSTYSLSSTLTLSKADYEKHKVYACEVTHQGLSSPVTKSFNRGEC | no binding (tested: about 70 nM) | 466 | 21.3 | 230 | 0.046 | 200000 | 0.078 | 1.7e-05 | 210000 | 0.022 | 1.4e-05 | 630000 | – | – | – | – | – | – | – | – | –

Second part, led by results:

binding result [1] | Inhibition of 1 nM PACAP27-induced PAC1-R mediated cAMP increase IC50 (pM) [2] [pM] | Inhibition of 0.1 nM PACAP38-induced PAC1-R mediated cAMP increase IC50 (pM) [3] [pM] | Kd [4] [nM] | koff [4] [s⁻¹] | kon [4] [M⁻¹ s⁻¹] | Kd [5] [nM] | koff [5] [s⁻¹] | kon [5] [M⁻¹ s⁻¹] | Kd [6] [nM] | koff [6] [s⁻¹] | kon [6] [M⁻¹ s⁻¹] | Inhibition of 5 nM PACAP38-induced human VPAC1-R mediated cAMP increase IC50 (pM) [7] [pM] | Inhibition of 1 nM PACAP38-induced human VPAC2-R mediated cAMP increase IC50 (pM) [8] [pM] | Kd [9] [nM] | koff [9] [s⁻¹] | kon [9] [M⁻¹ s⁻¹] | Kd [10] [nM] | koff [10] [s⁻¹] | kon [10] [M⁻¹ s⁻¹] | Binder | also measured
– | 275 | 83.4 | – | – | – | – | – | – | – | – | – | 2830 | 2880 | ≤ 0.0351 | ≤ 1e-05 | 285000 | ≤ 0.0238 | ≤ 1e-05 | 420000 | Ab21.H4 (antibody, human IgG1, kappa, N297A, Full-length humanized variant of Ab21) heavy: not shown light: DIVLTQSPSTLSASVGDRVTITCKSSESVYGDYLAWFQQKPGKAPKQLIYDASTLASGVPSRFSGSGSGTEFTLTISSLQPDDFATYYCAGGYVSAGVAFGGGTKVEIKRTVAAPSVFIFPPSDEQLKSGTASVVCLLNNFYPREAKVQWKVDNALQSGNSQESVTEQDSKDSTYSLSSTLTLSKADYEKHKVYACEVTHQGLSSPVTKSFNRGEC | Kd [11]: 523 nM; koff [11]: 0.0289 s⁻¹; kon [11]: 55300 M⁻¹ s⁻¹
– | 318 | 65.3 | – | – | – | – | – | – | – | – | – | 2520 | 1530 | ≤ 0.0311 | ≤ 1e-05 | 322000 | ≤ 0.0223 | ≤ 1e-05 | 449000 | Ab21.H3 (antibody, human IgG1, kappa, N297A, Full-length humanized variant of Ab21) heavy: not shown light: DIQLTQSPSTLSASVGDRVTITCKSSESVYGDYLAWFQQKPGKAPKQLIYDASTLASGVPSRFSGSGSGTEFTLTISSLQPDDFATYYCAGGYVSAGVAFGGGTKVEIKRTVAAPSVFIFPPSDEQLKSGTASVVCLLNNFYPREAKVQWKVDNALQSGNSQESVTEQDSKDSTYSLSSTLTLSKADYEKHKVYACEVTHQGLSSPVTKSFNRGEC | Kd [11]: 424 nM; koff [11]: 0.0249 s⁻¹; kon [11]: 58700 M⁻¹ s⁻¹
no binding (tested: about 70 nM) | 733 | 22.7 | – | – | – | – | – | – | – | – | – | – | – | – | – | – | – | – | – | Ab10.H5 (antibody, human IgG1, kappa, N297A, Full-length humanized variant of Ab10) heavy: not shown light: QLTQSPSTLSASVGDRVTITCQSSESVYGNYLAWFQQKPGKAPKFLIYEASKLESGVPSRFSGSGSGTEFTLTISSLQPDDFATYYCAGGDISEGVAFGGGTKVEIKRTVAAPSVFIFPPSDEQLKSGTASVVCLLNNFYPREAKVQWKVDNALQSGNSQESVTEQDSKDSTYSLSSTLTLSKADYEKHKVYACEVTHQGLSSPVTKSFNRGEC | –
